Measured values taken from the supplement of paper PMC10567573.

B1: CAMK2B (parent)
chain: YQQIKAGAYDFPSPEWDTVTPEAK

Variants of: B1
Test: protein stability index of a GFP-peptide fusion (GPS, HEK-293T) (PSI 1-6); higher = more stable
Conditions: c terminus: a fixed tail appended
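Also: lentivirally expressed fusions sorted by FACS into six bins by GFP to DsRed ratio, PSI derived from sequencing read proportions per bin multiplied by bin number.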

Protein stability index of substitutions, site by site:
P14: Q 3.87, F 2.67, L 3.17
K5: D 4.39, F 3.12, Q 3.77, W 1.95, M 4.04, Y 3.11, S 3.64, G 3.88, R 3.34, T 4, I 3.35, E 4.84, P 3.71, L 3.6, C 3.58, V 3.77, H 3.46, A 4.07, N 3.92
D17: Y 2.88, E 4.15, P 3.27, F 2.07, N 3.15, S 2.77, K 2.69, G 2.69, M 2.6, A 3.25, L 2.51, V 2.3, I 2.76, H 2.85, C 2.34, T 2.84, W 2, Q 3.17, R 2.57
T18: L 3.35, G 3.56, K 3.87, A 3.69, R 3.33, M 3.24, W 1.85, Q 4.03, N 3.69, D 4.25, F 3.09, H 3.63, S 3.88, C 3.37, V 3.1, Y 2.79, I 3.06, P 3.82, E 4.27
A6: N 3.44, S 3.59, T 3.62, K 3.22, W 2.28, Y 3.16, D 4.28, E 4.41, V 3.12, Q 3.92, M 3.96, I 2.77, P 3.82, R 2.38, F 2.9, L 3.09, H 3.24, C 3.37, G 3.13
T20: P 3.18, L 3.15, F 3.03, Y 3.06, E 3.93, S 3.74, H 3.86, D 4.31, K 3.41, C 3.51, V 3.66, R 3.47, M 3.16, Q 3.34, G 3.7, A 3.48, W 2.46, N 3.91, I 3.16
Q3: W 2.09, T 3.28, V 3.44, Y 2.6, S 2.8
D10: H 2.54, I 1.99, T 2.61, C 2.25, V 2.41, M 2.7, R 2.05, Y 1.79, N 2.52, W 2.83, P 2.7, K 2.25, G 2.23, L 2.4, A 2.72, E 3.55, F 1.98, Q 2.67, S 2.39
P21: C 3.29, H 3.42, G 3.65, E 4.3, F 2.78, A 3.44, D 4.05
G7: H 3.69, P 3.86, R 2.96, W 2.31, I 3.25, E 4.23, M 3.23, D 3.99, F 1.86, C 2.77, S 3.78, N 3.77, T 3.83, L 3, V 3.53, Y 1.87, A 3.79, Q 3.92, K 3.27
Y9: V 4.13, I 3.9, P 4.17, D 4.73, A 4.37, R 3.64, Q 4.48, E 4.71, S 4.3, F 3.5, H 4.14, N 4.26, T 4.23, C 3.79, K 3.99, M 4.1, G 4.6, W 2.48, L 4.04
